Results on one protein are retold here after publication PMC7491320, “Pdc2/Pat1 increases the range of decay factors and RNA bound by the Lsm1–7 complex” (RNA, 2019).

Series [1] deals with the molecule itself. The experiment in a line: AUC; sedimentation velocity, 9.3 µM PatMC/Lsm1–7 with stoichiometric A15 RNA, 250 mM NaCl, 20 mM HEPES pH 7.0, 1 mM DTT, 22°C, 30,000 rpm, 10–12 h.
Series [2] concerns the molecule itself. Put plainly: AUC; sedimentation velocity, 9.3 µM PatMC/Lsm1–7 without RNA, 250 mM NaCl, 20 mM HEPES pH 7.0, 1 mM DTT, 22°C, 30,000 rpm, 10–12 h.

As usually defined, the stoichiometry N is a count of units in the complex or per binding partner.

B1: PatMC/Lsm1–7 complex (complex)
chain 1: LDEKRQKLERDHMLMAQCAGLMTRSDKSFIARIQISQLMSEDPESDDFYYRVYSIIRGRKPSEEEASHFIQTYLGPSNNRRRGRRSENPMQKLQQQLQRLVSSAKERPKATQLSLEGALGKIAVNTVRTPRQLLNVKRPTEPASSNSSLNNFSGFSTKKDVLHAIEKVYDLLLDFEQALRKASTLETTDQEQIDTWKTTLSEKLESIWKALYINESLEASSKTRPPFISIISHPKGMRLLPRLFPHLSKEQQISILKVVVYNFDSLDIVLRGTFDVNGELPLDVVSEMSSFTQFIIPPLLTIVNELDLETINNLFSQLLNRTNAVYLIQTKIGLSFLTLFISRAEILKQSGTVNQNEKEEWENTFNVMFNRVKGHFSTVFPPPNARAYADESYPWEFLAACATAASSEQHFTLVSETRDRVLDNIITSKRAPSEIAVVRISNVNLFLNAMGLDARQLSA
chain 2: MNQATQIIPFTTSGSLVDYVDRKVIVVLRDGKKLIGILRSFDQFANLMLQYTIERIYVDDMYGDIDRGVYIVRGENVVLLGELDLDKEYDAVKQLRRMPAEELYPLAKLHEEEKKKNIREKGKYLHSVGFSVDGGHDDLY
chain 3: MLFYSFFKTLIDTEVTVELKNDMSIRGILKSVDQFLNVKLENISVVDASKYPHMAAVKDLFIRGSVVRYVHMSSAYVDTILLADACRRDLANNKRQ
chain 4: not shown
chain 5: MLPLTLLNATQGRPILVELKNGETFNGHLENCDNYMNLTLREVIRTMPDGDKFFRLPECYIRGNNIKYLRIQDEVLSQVAKQQAQQRENRGSRFRGRGQRGRGNYGHTAPNRRGRGRGGHM
chain 6: not shown
chain 7: MDSSPNEFLNKVIGKKVLIRLSSGVDYKGILSCLDGYMNLALERTEEYVNGKKTNVYGDAFIRGNNVLYVSALDD
chain 8: MSSLQKRPGPGNSSQPTERPRKESILDLSRYQDQRIQATFTGGRQITGILKGFDQLMNLVLDDVEEQLRNPEDGKLTGAIRKLGLVVVRGTTLVLIAPMDGSEEIPNPFVQAE
notes: Pat1 (Pdc2) of S. pombe, middle and carboxy-terminal domains (PatMC), residues 296-754, codon optimized; Lsm1 of S. pombe, from a polycistron with all seven Lsm proteins; Lsm2 of S. pombe, from the polycistron; Lsm3 of S. pombe, from the polycistron; Lsm4 of S. pombe, from the polycistron; Lsm5 of S. pombe, from the polycistron; Lsm6 of S. pombe, from the polycistron; Lsm7 of S. pombe, from the …
As to B1, the “stoichiometry N” value in series [1] worked out at 4; in series [2] it was 2.
